Measurements published in US10709761B2, “Methods and compositions for preventing or treating cancer” (UNIVERSITY OF UTAH RESEARCH FOUNDATION, priority 2015, dated 2020).

Tests used:
human fibroblasts = test: Caspase 3/7 cleavage after doxorubicin, human fibroblasts; assay type: cell-based; settings: 10 μM and 30 μM doxorubicin
elephant fibroblasts = test: Caspase 3/7 cleavage after doxorubicin, elephant fibroblasts; assay type: cell-based, African elephant; settings: 10 μM and 30 μM doxorubicin
[1] = system: African elephant lymphocytes; test: Annexin V / propidium iodide apoptosis after doxorubicin, elephant lymphocytes; assay type: cell-based; settings: 5 μM doxorubicin, 18 and 24 hours
Method: Ionizing radiation (0.5, 2, 5, 6, 10, and 20 Gy) or doxorubicin (0.005-30 μM) were used to induce DNA damage in the cultured primary PBLs, which were then evaluated for signs of apoptosis, DNA repair efficiency, and cell cycle arrest. Apoptosis was evaluated by measuring the number of cells that stained for Annexin V (AV) and propidium iodide (PI); cells were categorized as being in late apoptosis if they were AV+PI+, and in early apoptosis if they were AV+PI−. Apoptosis was also measured either using APO-TOX GLO™ (Promega, Madison, Wis.) or CASPASE-GLO® 3/7 Assay (Promega) and […]-GLO® (Promega). The results were normalized to cell viability either using counts from the MULTI-TOX-FLUOR™ assay (Promega) included with APO-TOX GLO™, or using […]-GLO® when caspase activity was measured. Statistically significant differences in apoptosis were calculated in […] PRISM®.

U-2OS cells [2] = test: U-2OS cell viability after doxycycline induction; assay type: cell-based, human; settings: 72 hours after induction with doxycycline
Method: U-2OS cells were also transfected with EP53^anc (SEQ ID NO: 2) and human TP53, and the cell viability after induction with doxycycline was observed after 72 hours.

[3] = system: p53 target genes, p21 and MDM2; test: Western blot of p53 pathway proteins in U-2OS cells expressing EP53^anc; assay type: cell-based, human
Method: For tetracycline inducible cells, the cells were treated with doxycycline for 24-48 hours prior to treatment with MG132 or doxorubicin. After the induction of DNA damage, the cells were harvested and pelleted. The cell pellets were frozen, and then lysed in cell lysis buffer containing phosphatase and protease inhibitors. The cell lysates were run on SDS-PAGE protein gels, and then transferred to PVDF membranes (western blots). The membranes were blocked, and then probed with primary antibodies to determine the p53 protein levels. The blots were probed with secondary HRP-conjugated antibodies, and the protein levels were detected using a substrate and a chemiluminometer. GAPDH was used as a loading control for each western blot. The blots were also probed for phosphorylated EP53^r at the serine-15 residue (phospho-EP53^r). DNA damage induces the phosphorylation of p53, which reduces the interaction of this protein with its negative regulator, mouse double minute 2 (MDM2) (Milczarek et al. Life Sci; 60: 1-11 (1997)).
(§1) U-2OS cells were also transduced with EP53^anc (SEQ ID NO: 2). These cells were then induced to express EP53^anc (SEQ ID NO: 3), and treated with doxorubicin to trigger DNA damage.

U-2OS cells [4] = test: U-2OS caspase activity after doxycycline induction; assay type: cell-based, human; settings: after induction with doxycycline
U-2OS cells [5] = test: Caspase activity / apoptosis in U-2OS cells expressing EP53 genes; assay type: cell-based, human; settings: compared to empty vector
Method: U-2OS cells were transfected with EP53^r5 (SEQ ID NO: 12) or EP53 ancestral (EP53^anc) (SEQ ID NO: 2), and then treated with doxycycline to induce EP53^r expression. The cells were then treated with doxorubicin to damage the DNA.
as §1

[6] = U-2OS induced to express, doxorubicin-treated

In the case of COc1cccc2c1C(=O)c1c(O)c3c(c(O)c1C2=O)C[C@@](O)(C(=O)CO)C[C@@H]3O[C@H]1C[C@H](N)[C@H](O)[C@H](C)O1 [doxorubicin], the “caspase 3/7 cleavage” value (human fibroblasts) is reported as 2.24 fold increase, the “caspase 3/7 cleavage” value (elephant fibroblasts) is reported as 9.1 fold increase and the “early apoptosis (AV+PI−)” value [1] is reported as “significant increase”. The “late apoptosis (AV+PI+)” value [1] was “significant increase”.

B1: EP53^anc: ancestral elephant TP53 gene (SEQ ID NO: 2) encoding elephant p53 protein (SEQ ID NO: 3), expressed from vector in cells (protein, listed as Loxodonta africana)
chain: MEEPQSDLSTELPLSQETFSYLWELLPENPVLSPTLPPAVEVMDDLLLSEDTANWLESQVEAQGMSTTPAPATPTPVAPAPATSWTLSSSVPSQKTYPGTYGFRLGFLHSGTAKSVTCTYSPDLNKLFCQLAKTCPVQLWVASPPPPGTRVRTMAIYKKSEHMTEVVKRCPHHERCSDSSDGLAPPQHLIRVEGNLRAEYLEDSITLRHSVVVPYEPPEVGSDCTTIHFNFMCNSSCMGGMNRRPILTIITLEDSSGNLLGRNSFEVRICACPGRDRRTEEENFHKKGEPCPEPPPPGRSTKRALPTNTSSSTQPKKKPLDEEYFTLQIRGRERFKMFLELNEALELKDAQAGKEPEGSRAHSSPSKSKKGQSTSRHKKPMFKREGPDSD
B1 was tested, and the cell viability (U-2OS cells [2]) was 35.6%, the “endogenous human p53 expression” value ([3]; U-2OS cells expressing EP53^anc) was “less” and the “p53 target genes, p21 and MDM2 (western blot)” value [3, 6] was “increase”. For the same molecule, the caspase activity (U-2OS cells [4]) was 14.22%, the “increase in caspase activity” value (U-2OS cells [5]; [6]) was 20 fold and the apoptosis (U-2OS cells [5]; U-2OS, absence of doxorubicin treatment) was “significant apoptosis”.
